# Assay results reported in patent publication US20140099313A1 (published 2014).
# How the values were obtained:
# [1] = target: T1, human IL-13 variant (R130Q of SEQ ID NO 1) (human, UniProt P35225 35-146); experiment: SPR (Biacore), captured mAb
# T1 construct: Recombinant purified protein (Peprotech for immunisation); also called h IL-13v; hIL-13v
# Protocol: The BIACORE assay (Biacore, Inc, Piscataway, N.J.) determines the affinity of antibodies with kinetic measurements of on-, off-rate constants. […] All chemicals were obtained from Biacore® AB (Uppsala, Sweden) or otherwise from a different source as described in the text. Approximately 5000 RU of goat anti-mouse IgG, (Fcγ), fragment specific polyclonal antibody (Pierce Biotechnology Inc, Rockford, Ill.) diluted in 10 mM sodium acetate (pH 4.5) was directly immobilized across a CM5 research grade biosensor chip using a standard amine coupling kit according to manufacturer's instructions and procedures at 25 μg/ml. […] Unmodified carboxymethyl dextran without goat anti-mouse IgG in flow cell 1 and 3 was used as the reference surface. For kinetic analysis, rate equations derived from the 1:1 Langmuir binding model were fitted simultaneously to association and dissociation phases of all eight injections (using global fit analysis) with the use of Biaevaluation 4.0.1 software. […] The association and dissociation rate constants, kₒₙ (unit M⁻¹s⁻¹) and koff (unit s⁻¹) were determined under a continuous flow rate of 25 μl/min Rate constants were derived by making kinetic binding measurements at ten different antigen concentrations ranging from 10-200 nM. […] Binding is recorded as a function of time and kinetic rate constants are calculated.
# human IL-13 wild type = target: T2, human IL-13 wild type (human, UniProt P35225 35-146); experiment: competition: human IL-13 to human IL-13Rα2, cell surface-based and ELISA-based RBA
# T2 construct: also called h IL-13; hIL-13 wt
# T2 sequence (P35225 other isoform, or with tags, fused parts or gaps limits assumed): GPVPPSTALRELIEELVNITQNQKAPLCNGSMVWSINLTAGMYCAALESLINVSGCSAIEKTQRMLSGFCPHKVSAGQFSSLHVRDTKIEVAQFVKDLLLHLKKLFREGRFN
# T1 sequence (P35225 35-146 limits assumed, stated change not applied): as the sequence (P35225 other isoform, or with tags, fused parts or gaps limits assumed) above, with R110Q counted along it
kon [1],IC50 (human IL-13 wild type),Binder
106000 M⁻¹ s⁻¹,–,"1B6 (antibody, V domains shown, Murine monoclonal, IgG1κ) VH: QVQLKESGPGLVAPSQSLSITCTVSGFSLTGYGVNWVRQPPGKGLEWLGMIWGDERIDYNSALKSRLSITKDNSKSQVFLKMNSLQTDDTGRYFCARDGYFPYAMDYWGQGTSVTVSS VL: NIVLTQSPASLAVSLGQRATISCRASETVDSYGKSYLHWYQQKPGQPPKLLIYLASNLESGVPARFSGSGSRTDFTLIIDPVEADDAATYYCQQNNEGPRTFGGGTKLEIKR"
–,1 to 3 nM,"13C5.5 (antibody, human IgG1, V domains shown, Humanized; also called humanized 13C5) VH: EVTLRESGPGLVKPTQTLTLTCTLYGFSLSTSDMGVDWIRQPPGKGLEWLAHIWWDDVKRYNPALKSRLTISKDTSKNQVVLKLTSVDPVDTATYYCARTVSSGYIYYAMDYWGQGTLVTVSS VL: DIQMTQSPSSLSASVGDRVTISCRASQDIRNYLNWYQQKPGKAPKLLIFYTSKLHSGVPSRFSGSGSGTDYTLTISSLQPEDIATYYCQQGNTLPLTFGGGTKVEIK"
